Molecular target: T1, Mcm10Δ150 (LexA fusion) (S. cerevisiae, UniProt P32354 151-571)
T1 construct: Mcm10, budding yeast, first 150 amino acids deleted; also called pBTM116-LEXA-mcm10Δ150; LexA-tagged Mcm10Δ150; source: yeast two-hybrid fusion (pBTM116); also overexpressed from the ADH1 promoter in yeast, in whole cell extract, for Co-IP
T1 sequence (looked up): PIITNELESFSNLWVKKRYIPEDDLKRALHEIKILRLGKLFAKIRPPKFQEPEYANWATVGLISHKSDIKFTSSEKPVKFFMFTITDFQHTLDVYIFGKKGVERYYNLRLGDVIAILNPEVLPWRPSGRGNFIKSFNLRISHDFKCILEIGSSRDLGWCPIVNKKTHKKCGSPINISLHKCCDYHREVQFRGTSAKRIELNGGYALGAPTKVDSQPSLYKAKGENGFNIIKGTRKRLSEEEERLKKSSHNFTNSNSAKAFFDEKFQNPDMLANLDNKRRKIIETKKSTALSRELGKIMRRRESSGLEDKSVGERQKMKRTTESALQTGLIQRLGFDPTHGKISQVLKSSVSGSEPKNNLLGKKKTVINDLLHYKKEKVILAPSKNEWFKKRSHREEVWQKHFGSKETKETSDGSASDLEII
Test: two-hybrid; yeast two-hybrid with pBTM116 (LexA) and pACT2 fusions; β-galactosidase activity in cell extracts, in triplicate from at least three clones
Settings: partners not purified

reduction of binding relative to wild-type Mcm10: ~85%
B1: Mcm10 (LexA fusion, wild type) (natural protein, S. cerevisiae, UniProt P32354 1-571, looked up)
chain: MNDPREILAVDPYNNITSDEEDEQAIARELEFMERKRQALVERLKRKQEFKKPQDPNFEAIEVPQSPTKNRVKVGSHNATQQGTKFEGSNINEVRLSQLQQQPKPPASTTTYFMEKFQNAKKNEDKQIAKFESMMNARVHTFSTDEKKYVPIITNELESFSNLWVKKRYIPEDDLKRALHEIKILRLGKLFAKIRPPKFQEPEYANWATVGLISHKSDIKFTSSEKPVKFFMFTITDFQHTLDVYIFGKKGVERYYNLRLGDVIAILNPEVLPWRPSGRGNFIKSFNLRISHDFKCILEIGSSRDLGWCPIVNKKTHKKCGSPINISLHKCCDYHREVQFRGTSAKRIELNGGYALGAPTKVDSQPSLYKAKGENGFNIIKGTRKRLSEEEERLKKSSHNFTNSNSAKAFFDEKFQNPDMLANLDNKRRKIIETKKSTALSRELGKIMRRRESSGLEDKSVGERQKMKRTTESALQTGLIQRLGFDPTHGKISQVLKSSVSGSEPKNNLLGKKKTVINDLLHYKKEKVILAPSKNEWFKKRSHREEVWQKHFGSKETKETSDGSASDLEII
notes: Mcm10, budding yeast, called full-length in the Co-IP with LexA-tagged constructs; also called LexA-tagged Mcm10; full-length Mcm10; source: yeast two-hybrid fusion (pBTM116); also overexpressed in yeast, in whole cell extract, for Co-IP

Source: article PMC4117747, “The N-terminus of Mcm10 is important for interaction with the 9-1-1 clamp and in resistance to DNA damage” (Nucleic Acids Research, 2014)
